Data: article PMC11790492 (Nature Microbiology, 2024)
Changes are numbered by the printed parent chain. Numbers in names are those of the source.

What was measured:
[1] = molecular target: KorB (wild type), C-terminally His-tagged (plasmid RK2 (Escherichia coli)) (UniProt P07674)
[2] = tested on: AF647-KorA (Y84A) (plasmid RK2); experiment: optical tweezers residence time; conditions: unlabelled KorB, 2 mM CTP; BLI and C-trap buffers not given in the material; crystals 10 mM Tris-HCl, 150 mM NaCl pH 8.0 then 1.95 M ammonium sulfate, 0.1 M NaOAc pH 4.6; Eσ70 binding …
AF647-KorA (plasmid RK2) = experiment: optical tweezers residence time; conditions: BLI and C-trap buffers not given in the material, crystals 10 mM Tris-HCl, 150 mM NaCl pH 8.0 then 1.95 M ammonium sulfate, 0.1 M NaOAc pH 4.6, Eσ70 binding …
KorB [3] = molecular target: T1, KorB (Escherichia coli, UniProt P07674); experiment: ITC; […] Å co-crystal structure (ligand modelled as CTP, sulfur position not assignable); format: binding; design: ITC: C-terminally His-tagged KorB; crystal: KorB∆N30∆CTD (lacks the 30 N-terminal amino acids, the linker and the CTD)
KorB [4] = molecular target: T1, KorB; experiment: ITC (weak, affinity could not be fitted); format: binding; design: C-terminally His-tagged KorB (WT)
[5] = molecular target: KorB (plasmid RK2, expressed in Escherichia coli) (UniProt P07674); experiment: BLI; conditions: BLI and C-trap buffers not given in the material, crystals 10 mM Tris-HCl, 150 mM NaCl pH 8.0 then 1.95 M ammonium sulfate, 0.1 M NaOAc pH 4.6, Eσ70 binding …
Noc = molecular target: T2, Noc (Bacillus subtilis, UniProt P37524); experiment: CTP hydrolysis rate by phosphate release assay (EnzChek), […] CTP; format: biochemical
T2 sequence (P37524 1-283): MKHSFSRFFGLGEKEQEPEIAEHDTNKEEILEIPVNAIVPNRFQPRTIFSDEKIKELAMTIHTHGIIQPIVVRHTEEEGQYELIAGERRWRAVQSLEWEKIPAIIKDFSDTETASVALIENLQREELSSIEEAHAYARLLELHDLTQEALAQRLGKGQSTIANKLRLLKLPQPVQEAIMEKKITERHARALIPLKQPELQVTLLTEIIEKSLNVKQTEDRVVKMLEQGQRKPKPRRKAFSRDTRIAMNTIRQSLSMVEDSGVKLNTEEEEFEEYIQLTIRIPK

ParB = molecular target: T3, ParB (Caulobacter vibrioides, UniProt P0CAV8); experiment: as above; format: biochemical
T3 sequence (P0CAV8 1-304): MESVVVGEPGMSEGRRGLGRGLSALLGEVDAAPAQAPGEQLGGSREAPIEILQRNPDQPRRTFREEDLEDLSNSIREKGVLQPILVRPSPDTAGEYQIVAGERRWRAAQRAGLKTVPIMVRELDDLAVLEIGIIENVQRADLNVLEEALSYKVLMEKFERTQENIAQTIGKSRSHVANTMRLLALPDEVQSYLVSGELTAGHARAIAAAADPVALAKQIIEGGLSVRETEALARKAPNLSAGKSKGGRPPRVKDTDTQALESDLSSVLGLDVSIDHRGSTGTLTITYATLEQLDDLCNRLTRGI

KorB [6] = molecular target: T1, KorB; experiment: ITC; also OB DNA-stimulated CTPase assay; format: binding; design: C-terminally His-tagged KorB (WT)
E. coli RNAP core;σ70 = E. coli RNAP core;σ70 (Escherichia coli;Escherichia coli, UniProt P0A7Z4;P0A8V2;P0A8T7;P0A800;P00579 1-329;1-1342;1-1407;2-91;1-613, |); experiment: native MS; no KorA/KorB; BLI and C-trap buffers not given in the material; crystals 10 mM Tris-HCl, 150 mM NaCl pH 8.0 then 1.95 M ammonium sulfate, 0.1 M NaOAc pH 4.6; Eσ70 binding and; conditions: protein: recombinant;recombinant; tags: His10-PPX;His-SUMO, cleaved; chain copies: 2;1;1;1;1; blunt
[7] = molecular target: T4, KorB (wild type), C-terminally His-tagged (plasmid RK2 (Escherichia coli), UniProt P07674 1-358); experiment: cell-based or functional assay
T4 sequence (looked up): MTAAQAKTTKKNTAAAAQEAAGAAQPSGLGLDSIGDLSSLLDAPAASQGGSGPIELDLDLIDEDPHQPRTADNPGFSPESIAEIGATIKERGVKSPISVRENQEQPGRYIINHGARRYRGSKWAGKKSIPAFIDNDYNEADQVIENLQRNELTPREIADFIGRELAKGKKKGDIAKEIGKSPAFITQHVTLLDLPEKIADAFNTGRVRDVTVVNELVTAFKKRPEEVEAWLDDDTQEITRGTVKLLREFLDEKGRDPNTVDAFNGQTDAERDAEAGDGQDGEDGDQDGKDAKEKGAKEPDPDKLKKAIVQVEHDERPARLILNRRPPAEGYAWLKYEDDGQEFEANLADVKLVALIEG

[8] = molecular target: T5, KorB (wild type), C-terminally His-tagged (plasmid RK2 (Escherichia coli), UniProt P07674 1-358); experiment: ITC
T5 chain: T4 sequence (looked up)

[9] = molecular target: the molecule itself; experiment: crystal structure; KorBΔN30ΔCTD–KorA complex with 14 bp OA DNA duplex, no CTPγS added; 2.7 Å; two KorA, two KorB subunits and one DNA duplex in the asymmetric unit
[10] = molecular target: the molecule itself; experiment: cross-linking; BMOE (1 mM) cysteine cross-linking of 8 µM KorB variant dimer ± 1 mM CTP or CTPγS ± 24 bp OB or scrambled DNA; 10 mM Tris–HCl pH 7.4, 100 mM NaCl, 1 mM MgCl2; room temperature; SDS–PAGE, band quantification
KorBΔN30ΔCTD;KorA = KorBΔN30ΔCTD;KorA (plasmid RK2;plasmid RK2, UniProt P07674;P03052 31-252;1-101, |); experiment: X-ray crystallography; no CTPγS added; sulfates; BLI and C-trap buffers not given in the material; crystals 10 mM Tris-HCl, 150 mM NaCl pH 8.0 then 1.95 M ammonium sulfate, 0.1 M NaOAc pH 4.6; Eσ70 binding and; conditions: protein: recombinant;recombinant; tags: His-tagged;C-terminal His6 (pET21b); chain copies: 2;2; blunt, self-complementary, 2 copies

In the case of “AF647–KorA: KorA with an extra C-terminal cysteine, C-terminally His-tagged, labelled with Alexa Fluor 647 (from UniProt P03052) (natural protein)”, the change of the residence time of AF647–KorA at OA on DNA (optical tweezers) with unlabelled KorB and CTP, against KorA with or without apo-KorB [1] is reported as 4.5 fold.

“C-trap DNA 8xOB + 1xOA (22,394 bp; also ligated as 44.8 kb tandem)” was tested, and the binding [2] was 3.72 s, the binding (AF647-KorA (plasmid RK2); unlabelled KorB (F249A), 2 mM CTP) was 3.07 s and the binding (AF647-KorA (plasmid RK2); unlabelled KorB, 2 mM CTP) was 10.1 s. It also gave a binding (AF647-KorA (plasmid RK2); unlabelled KorB, no CTP) of 2.61 s.

Molecule `Nc1ccn([C@@H]2O[C@H](COP(=O)(O)OP(=O)(O)OP(O)(O)=S)[C@@H](O)[C@H]2O)c(=O)n1` [CTPɣS, cytidine-5′-(3-thiotriphosphate)] has a Kd (KorB [3]) of 0.4 ± 0.1 µM.

`Nc1ccn([C@@H]2O[C@H](COP(=O)(O)OP(=O)(O)O)[C@@H](O)[C@H]2O)c(=O)n1` [CDP] was tested, and the “ITC (weak, affinity could not be fitted)” value (KorB [4]) was “KorB binding to CDP was qualitatively much weaker than to CTP, but the data precluded the estimation”.

In the case of 40-bp OB DNA, the Kd ([5]; 1 mM CTP) is reported as 60 µM and the Kd ([5]; no CTP) is reported as 0.14 µM.

In the case of `Nc1ccn([C@@H]2O[C@H](COP(=O)(O)OP(=O)(O)OP(=O)(O)O)[C@@H](O)[C@H]2O)c(=O)n1` [CTP], the “CTP hydrolysis rate by phosphate release assay (EnzChek), 1 mM CTP” value (Noc) is reported as “CTP hydrolysis rates of KorB, C. crescentus ParB, and B. subtilis Noc were measured by continuous detection”, the “CTP hydrolysis rate by phosphate release assay (EnzChek), 1 mM CTP” value (ParB) is reported as “CTP hydrolysis rates of KorB, C. crescentus ParB, and B. subtilis Noc were measured by continuous detection” and the Kd (KorB [6]) is reported as 4.5 ± 0.5 µM.

B1: PkorA 100 bp (nMS) (dsDNA)
DNA 1: GTTACGCCAAGGACGAGTTTTAGCGGCTAAAGGTGTTGACGTGCGAGAAATGTTTAGCTAAACTTCTCTCATGTGCTGGCGGCTGTCACCGCTATGTTCA
DNA 2: TGAACATAGCGGTGACAGCCGCCAGCACATGAGAGAAGTTTAGCTAAACATTTCTCGCACGTCAACACCTTTAGCCGCTAAAACTCGTCCTTGGCGTAAC
B1: binds (E. coli RNAP core;σ70).

B2: KorA (wild type), C-terminally His-tagged (natural protein, plasmid RK2 (Escherichia coli))
chain: MKKRLTESQFQEAIQGLEVGQQTIEIARGVLVDGKPQATFATSLGLTRGAVSQAVHRVWAAFEDKNLPEGYARVTAVLPEHQAYIVRKWEADAKKKQETKR
notes: KorA of plasmid RK2, wild type; cysteine-less; expected monomer mass in nMS 12,825.6 Da; also called KorA (WT); KorA–(his)6; source: E. coli Rosetta (BL21 DE3) pLysS, pET21b, purified (HisTrap, Heparin, Superdex 75); not shown: His6, C-terminal, kept
B2 was tested, and the “fold of repression of a promoter–xylE reporter (OB 1.5 kb upstream of the core promoter, OA over the −10 element) in E. coli with WT KorA and WT KorB co-expressed” value [7] was ~38000 fold, the Kd [8] was 4.2 µM and the binding result [9] was “binds”.

B3: KorB (K351C), C-terminally His-tagged (natural protein)
chain: T4 sequence (looked up) with K351C
B3: binds [10].

B4: 14 bp OA (dsDNA)
DNA 1: TGTTTAGCTAAACA
DNA 2: TGTTTAGCTAAACA
B4: binds (KorBΔN30ΔCTD;KorA).
